The target in the experiment is MbnN from Methylosinus trichosporium OB3b, tagless (C-terminal His6 tag removed by TEV protease) (Methylosinus trichosporium OB3b). Put plainly: native gel or EMSA.

The substance “MbnN from Methylosinus trichosporium OB3b, tagless (C-terminal His6 tag removed by TEV protease) (enzyme)” showed a stoichiometry N of 2.

By stoichiometry N is commonly meant the number of molecules, sites or subunits per partner or assembly.

The values are drawn from article PMC6019534.
